Where two headings read alike, the source gives them in different places.
Key:
[1] = target: cell-bound C3b on sheep erythrocytes (EAC4b,3b, called EC3b) (human) (UniProt P01024); assay: radioligand binding
[2] = target: cell-bound C3b on sheep erythrocytes (EAC4b,3b, called EC3b) (human) (UniProt P01024); assay: radioligand binding; remark: listed apart in the source

Sequence of UniProt P01024 (P01024 23-667, chain 1 of 2): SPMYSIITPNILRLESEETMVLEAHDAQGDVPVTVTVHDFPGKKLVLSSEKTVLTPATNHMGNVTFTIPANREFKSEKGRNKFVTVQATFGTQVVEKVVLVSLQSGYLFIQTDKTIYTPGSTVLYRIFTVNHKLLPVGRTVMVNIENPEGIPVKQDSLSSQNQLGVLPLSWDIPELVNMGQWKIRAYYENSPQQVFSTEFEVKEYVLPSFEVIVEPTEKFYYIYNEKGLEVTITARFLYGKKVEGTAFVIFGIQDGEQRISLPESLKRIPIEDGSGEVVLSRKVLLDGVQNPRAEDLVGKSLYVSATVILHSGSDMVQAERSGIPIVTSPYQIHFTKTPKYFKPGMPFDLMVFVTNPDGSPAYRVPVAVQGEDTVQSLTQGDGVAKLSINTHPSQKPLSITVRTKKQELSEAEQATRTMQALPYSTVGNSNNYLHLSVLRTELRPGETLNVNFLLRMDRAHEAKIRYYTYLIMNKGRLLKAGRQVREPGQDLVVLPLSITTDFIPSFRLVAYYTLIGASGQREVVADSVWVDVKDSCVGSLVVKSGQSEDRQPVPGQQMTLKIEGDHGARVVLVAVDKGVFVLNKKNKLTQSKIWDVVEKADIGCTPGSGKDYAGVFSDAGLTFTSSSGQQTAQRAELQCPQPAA
Sequence of UniProt P01024 (P01024 749-1663, chain 2 of 2): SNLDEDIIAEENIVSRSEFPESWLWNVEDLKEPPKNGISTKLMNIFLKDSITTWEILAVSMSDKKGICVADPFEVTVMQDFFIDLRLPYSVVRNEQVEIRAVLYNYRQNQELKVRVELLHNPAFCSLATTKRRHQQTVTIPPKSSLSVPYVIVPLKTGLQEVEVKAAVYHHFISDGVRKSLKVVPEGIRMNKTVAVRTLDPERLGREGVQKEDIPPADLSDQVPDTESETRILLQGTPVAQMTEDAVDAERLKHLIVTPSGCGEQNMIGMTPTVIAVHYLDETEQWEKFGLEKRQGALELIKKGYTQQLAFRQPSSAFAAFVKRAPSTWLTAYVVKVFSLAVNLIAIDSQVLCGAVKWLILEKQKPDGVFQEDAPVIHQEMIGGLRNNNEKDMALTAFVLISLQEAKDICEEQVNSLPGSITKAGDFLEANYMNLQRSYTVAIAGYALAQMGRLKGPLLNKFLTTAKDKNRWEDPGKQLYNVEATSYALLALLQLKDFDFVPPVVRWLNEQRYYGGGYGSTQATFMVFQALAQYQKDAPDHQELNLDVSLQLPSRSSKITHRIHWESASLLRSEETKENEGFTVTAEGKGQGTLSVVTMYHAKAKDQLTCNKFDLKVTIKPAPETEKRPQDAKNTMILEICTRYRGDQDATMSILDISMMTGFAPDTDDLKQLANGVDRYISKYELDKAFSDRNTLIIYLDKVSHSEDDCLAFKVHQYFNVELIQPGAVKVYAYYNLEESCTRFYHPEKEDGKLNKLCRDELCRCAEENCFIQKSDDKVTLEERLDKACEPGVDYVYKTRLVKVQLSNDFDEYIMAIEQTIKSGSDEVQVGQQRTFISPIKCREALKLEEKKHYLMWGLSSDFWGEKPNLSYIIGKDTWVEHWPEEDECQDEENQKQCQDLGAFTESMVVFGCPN

Substance	percent of input taken up [1]	stoichiometry N (molecules P per molecule C3b) [1]	uptake (cpm) [1]	uptake (cpm) [2]
activated properdin (P) (from UniProt P27918 28-469) (natural protein)	< 1%	< 10		
precursor properdin (pre-P) (from UniProt P27918 28-469) (natural protein)			378 cpm	10700 cpm

— article PMC2190426
